The values below come from article PMC3150355, “TAT-Mediated Transduction of MafA Protein In Utero Results in Enhanced Pancreatic Insulin Expression and Changes in Islet Morphology”.

The series concerns the target TAT-MafA (unphosphorylated, PBS treated) (human, UniProt Q8NHW3 1-353). Nature of the series: EMSA; unphosphorylated; basal DNA-binding activity; Pierce LightShift chemiluminescent EMSA kit; 200 fmol/ul biotin-DNA, unlabeled competitor 10 pmol/ul, 82.15 ug TAT-MafA; ERK2 or PBS 37 C 1 h, then 20 min binding; buffer, pH and binding temperature not stated. To be noted: protein: recombinant; TAT PTD (11 aa) and 6xHis, pTAT-2.1 (pET28); chain copies: 2; blunt.

Sequence of TAT-MafA (unphosphorylated, PBS treated) (Q8NHW3 whole entry): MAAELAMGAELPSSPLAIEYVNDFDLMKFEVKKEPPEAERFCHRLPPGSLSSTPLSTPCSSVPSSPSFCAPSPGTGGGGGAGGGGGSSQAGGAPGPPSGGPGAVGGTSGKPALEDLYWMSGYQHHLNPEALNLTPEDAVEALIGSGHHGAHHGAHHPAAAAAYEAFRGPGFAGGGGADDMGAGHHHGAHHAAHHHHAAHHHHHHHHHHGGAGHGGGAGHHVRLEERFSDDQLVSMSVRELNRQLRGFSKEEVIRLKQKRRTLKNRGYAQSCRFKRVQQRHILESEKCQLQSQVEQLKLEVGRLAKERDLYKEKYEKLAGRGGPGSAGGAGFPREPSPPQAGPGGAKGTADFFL

B1: insulin promoter -139 to -104 (C1 box) (dsDNA)
DNA 1: ATGGTCCGGAAATTGCAGCCTCAGCCCCCAGCCATC
DNA 2: GATGGCTGGGGGCTGAGGCTGCAATTTCCGGACCAT
As for B1, the binding result was “binds”.
